Measurements taken from paper PMC3436176 (The Journal of Biological Chemistry, 2012).

Target: T1, GPVI-Fc2 (GPVI dimer) (Homo sapiens, UniProt Q9HCN6)
T1 sequence (Q9HCN6 21-214 limits assumed): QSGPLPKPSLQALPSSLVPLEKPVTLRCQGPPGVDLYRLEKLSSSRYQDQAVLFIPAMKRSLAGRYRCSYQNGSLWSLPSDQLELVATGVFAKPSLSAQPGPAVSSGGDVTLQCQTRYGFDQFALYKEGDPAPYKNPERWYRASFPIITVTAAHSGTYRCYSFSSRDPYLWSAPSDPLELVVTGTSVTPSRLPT
Experiment: ELISA: GPVI dimer binding to immobilized collagenous substrates

Kd (monomer)/Kd (dimer) (binding to collagenous substrates): 236.7
Hill coefficient for dimer binding (mean ± S.E., n = 4-12 as printed): 1.16 ± 0.11
B1: Collagen type III: Pepsin-treated bovine type III collagen from Koken (protein)
chain: EYEAYDVKSGVAGGGIAGYPGPAGPPGPPGPPGTSGHPGAPGAPGYQGPPGEPGQAGPAGPPGPPGAIGPSGKDGESGRPGRPGPRGFPGPPGMKGPAGMPGFPGMKGHRGFDGRNGEKGEPGAPGLKGENGVPGEDGAPGPMGPRGAPGERGRPGLPGAAGARGNDGARGSDGQPGPPGPPGTAGFPGSPGAKGEVGPAGSPGSSGAPGQRGEPGPQGHAGAPGPPGPPGSDGSPGGKGEMGPAGIPGAPGLIGARGPPGPPGTNGVPGQRGAAGEPGKNGAKGDPGPRGERGEAGSPGIAGPKGEDGKDGSPGEPGANGLPGAAGERGVPGFRGPAGANGLPGEKGPPGDRGGPGPAGPRGVAGEPGRNGLPGGPGLRGIPGSPGGPGSNGKPGPPGSQGETGRPGPPGSPGPRGQPGVMGFPGPKGNDGAPGKNGERGGPGGPGPQGPAGKNGETGPQGPPGPTGPSGDKGDTGPPGPQGLQGLPGTSGPPGENGKPGEPGPKGEAGAPGIPGGKGDSGAPGERGPPGAGGPPGPRGGAGPPGPEGGKGAAGPPGPPGSAGTPGLQGMPGERGGPGGPGPKGDKGEPGSSGVDGAPGKDGPRGPTGPIGPPGPAGQPGDKGESGAPGVPGIAGPRGGPGERGEQGPPGPAGFPGAPGQNGEPGAKGERGAPGEKGEGGPPGAAGPAGGSGPAGPPGPQGVKGERGSPGGPGAAGFPGGRGPPGPPGSNGNPGPPGSSGAPGKDGPPGPPGSNGAPGSPGISGPKGDSGPPGERGAPGPQGPPGAPGPLGIAGLTGARGLAGPPGMPGARGSPGPQGIKGENGKPGPSGQNGERGPPGPQGLPGLAGTAGEPGRDGNPGSDGLPGRDGAPGAKGDRGENGSPGAPGAPGHPGPPGPVGPAGKSGDRGETGPAGPSGAPGPAGSRGPPGPQGPRGDKGETGERGAMGIKGHRGFPGNPGAPGSPGPAGHQGAVGSPGPAGPRGPVGPSGPPGKDGASGHPGPIGPPGPRGNRGERGSEGSPGHPGQPGPPGPPGAPGPCCGAGGVAAI
